The chains are these.
B1: CD97 EGF_(1,2,5) fragment, WT, without His-tag (SPR construct with TEV site) [human] / CD55 SCR1–4 domains (35–285), His-tagged [human] (parent)
chain 1: QDSRGCARWCPQNSSCVNATACRCNPGFSSFSEIITTPTETCDDINECATPSKVSCGKFSDCWNTEGSYDCVCSPGYEPVSGAKTFKNESENTCQDVDECSSGQHQCDSSTVCFNTVGSYSCRCRPGWKPRHGIPNNQKDTVCED
chain 2: DCGLPPDVPNAQPALEGRTSFPEDTVITYKCEESFVKIPGEKDSVICLKGSQWSDIEEFCNRSCEVPTRLNSASLKQPYITQNYFPVGTVVEYECRPGYRREPSLSPKLTCLQNLKWSTAVEFCKKKSCPNPGEIRNGQIDVPGGILFGATISFSCNTGYKLFGSTSSFCLISGSSVQWSDPLPECREIYCPAPPQIDNGIIQGERDHYGYRQSVTYACNKGFTMIGEHSIYCTVNNDEGEWSGPPPECRG

One test covers variants of B1. The test is described as follows: SPR. The following applies: with CD55 SCR1–4 domains (35–285), His-tagged CD55 immobilized on NTA chip, CD97(E86A) titrated at 0.2, 0.5, 1, 2, 5, 10, 20, 30 µM.
chain 1 E66A: the koff is 1.41 10^-3 s-1.

Staying with this test, now noted: with CD55 SCR1–4 domains (35–285), His-tagged CD55 immobilized on NTA chip, CD97(E86A) titrated at 0.2, 0.5, 1, 2, 5, 10, 20, 30 µM, parent: 546.
Consider chain 1 E66A, for which the kon was determined as 80.1 M⁻¹ s⁻¹.

The same test, now with this note: with CD55 SCR1–4 domains (35–285), His-tagged CD55 immobilized on NTA chip, CD97(D63L) titrated at 0.2, 0.5, 1, 5, 10, 20 µM.
For the variant chain 1 D43L, the koff was 0.968 10^-3 s-1.

Still in this test, the particulars now being: with CD55 SCR1–4 domains (35–285), His-tagged CD55 immobilized on NTA chip, CD97(D63L) titrated at 0.2, 0.5, 1, 5, 10, 20 µM, parent: 546.
On to chain 1 D43L, for which the on-rate (kon) is 11.2 M⁻¹ s⁻¹.

Still in this test, the particulars now being: with CD55 SCR1–4 domains (35–285), His-tagged CD55 immobilized on NTA chip, CD97(D81A) titrated at 0.2, 0.5, 1, 2, 5, 10, 20 µM.
In the case of chain 1 D61A, the koff was 1.22 10^-3 s-1.

The same test, now with this note: with CD55 SCR1–4 domains (35–285), His-tagged CD55 immobilized on NTA chip, CD97(D81A) titrated at 0.2, 0.5, 1, 2, 5, 10, 20 µM, parent: 546.
For the variant chain 1 D61A, the kon was 20.2 M⁻¹ s⁻¹.

The test is the same for the next values; noted with them: with CD55 SCR1–4 domains (35–285), His-tagged CD55 immobilized on NTA chip, CD97(V137A) titrated at 0.2, 0.5, 1, 2, 5, 10, 20 µM.
In the case of chain 1 V117A, the koff was 1.63 10^-3 s-1.

The test is the same for the next values; noted with them: with CD55 SCR1–4 domains (35–285), His-tagged CD55 immobilized on NTA chip, CD97(V137A) titrated at 0.2, 0.5, 1, 2, 5, 10, 20 µM, parent: 546.
chain 1 V117A: the kon worked out at 64 M⁻¹ s⁻¹.

As usually defined, the koff is the first-order rate constant of dissociation. As usually defined, the kon is the second-order rate constant of association.

For the origin of these results see publication PMC8191316, “Structural basis for CD97 recognition of the decay-accelerating factor CD55 suggests mechanosensitive activation of adhesion GPCRs” (The Journal of Biological Chemistry, 2021).
